Experimental findings from article PMC11508141 are described below.

The target of this assay is T1, DJ-1 protein with the 6X-His tag, Q99497.
T1 chain: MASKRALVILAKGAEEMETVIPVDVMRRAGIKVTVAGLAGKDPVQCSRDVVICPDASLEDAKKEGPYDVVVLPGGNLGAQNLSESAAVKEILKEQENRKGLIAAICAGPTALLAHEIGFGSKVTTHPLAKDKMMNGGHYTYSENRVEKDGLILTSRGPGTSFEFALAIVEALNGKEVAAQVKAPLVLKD
As to the kind of experiment: cross-linking; purified DJ-1 treated with 25 mM DSS at 25 °C for 30 min, with or without P1 or P2, then SDS-PAGE (12% gel). The note with it: remark: other sources report otherwise.

B1: DJ-1 protein with the 6X-His tag, Q99497 1-189 (enzyme)
chain: T1 chain
B1 gave a stoichiometry N of 2.

The stoichiometry N is a count of units in the complex or per binding partner.
